In the supplement of paper PMC12042874:
± gives the uncertainty stated by the source.

Assay: amyloid nucleation score (Sup35N fusion, yeast selection) (log enrichment); library NNK2; higher = more nucleation; inactive = no reads after selection
In short: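 Nucleation score is defined as the DiMSum log enrichment of output over input reads, with centring on the mode score of non-aggregating sequences. A minimum of 100 input reads was required for each sequence. Reads came from Illumina sequencing of plasmid inserts from psi-negative yeast expressing Sup35N fused to peptides of 20 random codons, induced with 100 μM copper sulfate for 24 hours and grown 7 days at 30°C on medium lacking adenine and uracil.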

Point of comparison: QWYPNFHFHAISLCKYTGQG, amyloid nucleation score 0.017 ± 0.19. Against it:
- QLKYVSGNIYRLVVWVRGSP — lower, -0.926 ± 0.37
- QLQVSYYQRSGMFERFRLEW — higher, 2.46 ± 0.18
- QLVLQVNRYVYRIMSTLTLS — higher, 0.848 ± 0.52
- QNQVGIRGILHHMMNSLRTQ — higher, 3.87 ± 0.055
- QPILSNLLNHLYTNILSSTL — lower, -0.936 ± 0.64
- QPISVMSNLSEIIWTYSMRA — within error, -0.002 ± 0.63
- QQMSIHRYADGVFELGIPVM — within error, 0.11 ± 0.54
- QRIPWV — within error, -0.509 ± 1.1
- QRLYFMIMSQPAFGTFRGIY — within error, -0.95 ± 1.1
- QRYGVFAYGRLIRIHCRRLG — within error, 0.159 ± 0.29
- QSGYVGNGVWVVTVVSKLMC — higher, 6.796 ± 0.037
- QSHTGWYLVFV — within error, 0.05 ± 1
- QSHTYRL — higher, 1.55 ± 0.25
- QSRCGYMGNRH — within error, 0.166 ± 0.76
- QSTMDCT — within error, 0.082 ± 1.1
- QTGNFPIDHVQYCFFRITLS — lower, -1.28 ± 0.62
- QTLMLRSCYNWYPCGAAVVP — higher, 2.5 ± 0.093
- QTNCETCVFNNTFELMLHQS — higher, 4.37 ± 0.087
- QTNST — within error, 0.526 ± 0.57
- QTNTGIVESQRSVCLNKIAR — within error, 0.234 ± 0.17
- QTVQVRPVRYGSQSFRNFGW — within error, -0.109 ± 0.49
- QVAKAYFEEGRRDDFSYHGK — within error, 0.171 ± 0.56
- QVFAHIAVSYGLLFFLHWEC — within error, -0.331 ± 1
- QVSSTST — higher, 0.592 ± 0.35
- QWCYSAVYSMLVSKRL — higher, 2.68 ± 0.078
- QWTLVL — within error, -0.599 ± 0.55
- QYHCPS — within error, -0.616 ± 0.5
- QYLVRYLYAITLK — within error, -0.603 ± 1
- QYSFKVDKTCRSVH — within error, 0.147 ± 0.76
- QYVMERYWRDWFKRMMLLFS — higher, 0.584 ± 0.27
- QYVSMKMNLRTR — within error, -0.403 ± 1
- RAMANHHDDWLVPGFQ — within error, -0.258 ± 0.45
- RAMLNLKE — higher, 2.46 ± 0.053
- RAQYPFDSLSRGSGPVMWLS — higher, 1 ± 0.57
- RASVYCFLEHG — higher, 3.42 ± 0.049
- RATKYFLSFCSLKFKFCHYF — lower, -0.658 ± 0.32
- RAVRDLLVLNIINVAVTSIN — higher, 7.495 ± 0.043
- RCCSVAYTIGLLTRRSLATG — higher, 0.451 ± 0.24
- RCEVAMDGVESVKSFPA — higher, 0.697 ± 0.35
- RCFIDLPCCQYLVQPRVGSG — within error, -0.26 ± 1
- RCGVYRVTHSEAERSLSISL — within error, 0.698 ± 0.57
- RCIIIAM — higher, 2.88 ± 0.12
- RCLGLCFICEYDFGVMRYSA — within error, -0.633 ± 0.48
- RCMLKSIRLLSSVGRLHYRW — higher, 0.742 ± 0.48
- RCQLRALRCPFMSTVLRCSY — higher, 0.803 ± 0.28
- RCSVGVAWEVGKYVIKIRGF — lower, -1.08 ± 0.62
- RCVKNKLWTYMGGNISYTSS — higher, 2.14 ± 0.1
- RCVWYSGSRLWTYWQVWLMG — within error, 0.458 ± 0.8
- RCWWAYQ — higher, 1.11 ± 0.12
- RDHYCFYRYRKGEFNNTRHP — within error, -0.147 ± 0.39
- RDNYEGLY — lower, -1.05 ± 0.74
- RECQHF — within error, -0.077 ± 0.74
- REDLLRNKTLL — lower, -0.858 ± 0.44
- RENVVSGHDRNECAGLMSRG — within error, 0.343 ± 0.27
- RERLL — within error, -0.114 ± 0.51
- REVIRGLCMYKARWIRVGVG — higher, 0.947 ± 0.21
- REYASILMYRNCMCH — within error, 0.007 ± 0.5
- RFCFVTIYSHRGVYANRMGM — higher, 4.31 ± 0.075
- RFCRVDKWEVRQGM — higher, 5.339 ± 0.051
- RFDDASGDMVNAEG — higher, 4.6 ± 0.05
- RFDQGVGTLWHVSLVTE — within error, -0.107 ± 1
- RFDSWVAWGFG — higher, 1.74 ± 0.15
- RFFNPNMLKFALSGQ — lower, -1.37 ± 0.44
- RFGLISANLLSLDY — within error, -0.938 ± 1.1
- RFICYSHTFTGSMLSISIR — higher, 8.061 ± 0.077
- RFKDCLIPQWLPGMIKNR — within error, -0.444 ± 0.48
- RFKSIWAVNVIWNDYVADNG — higher, 7.835 ± 0.077
- RFNFHTSD — within error, -0.959 ± 1.1
- RFPCRLLRASLFP — lower, -0.636 ± 0.45
- RFQFSICHYYDLNFS — within error, 0.594 ± 0.66
- RFQVSLEILSIYRCRTTTD — higher, 3.27 ± 0.15
- RFSLRRNCAMAQWLISATCS — within error, 0.37 ± 0.3
- RFSYGVEANVMSPINTFLQW — higher, 0.77 ± 0.23
- RFTNSESRNYRA — higher, 4.24 ± 0.069
- RFVFQIVSIYISWMVIDKTR — within error, -0.436 ± 0.78
- RFWLESIWLDNL — within error, 0.25 ± 0.42
- RFYCRRT — within error, 0.199 ± 0.33
- RGCSESWLSW — within error, 0.079 ± 0.34
- RGCSVSTDDSVIRLTIAWQY — within error, 0.33 ± 0.4
- RGFCN — within error, -1 ± 1.1
- RGKDEDMLKSECHYVL — within error, -0.883 ± 0.76
- RGLCVGSSARFCVY — within error, 0.691 ± 0.6
- RGLRMYERGSVTWSFDFMEG — higher, 5.44 ± 0.077
- RGMSAKSTERYVLGIGRAVS — higher, 4.18 ± 0.11
- RGPTAHTFSARENP — within error, -0.312 ± 0.45
- RGSSLCYLRKGGFGWQGVVG — within error, 0.733 ± 0.56
- RHGGQAAGRVEHVTSGCQRV — higher, 1.54 ± 0.47
- RHMLYVGMSHNPRLGPSSLG — within error, 0.511 ± 0.38
- RHMWDHFCCFF — higher, 5.28 ± 0.094
- RHPMSKKTSYKWYVVLTQCR — higher, 0.554 ± 0.31
- RHRSNCMRRSTVSVGNVRES — within error, 0.427 ± 0.23
- RHSKFRVITENMIDPFQRS — within error, 0.249 ± 0.64
- RHVRMISHELNEDTCYTCIL — within error, -0.536 ± 1.1
- RHYLRRCEEDNCHPKYFVRY — within error, -0.439 ± 0.76
- RIASLTSLGGNMNCAVHSFE — within error, -0.427 ± 1.1
- RIISHDSCRVIFGKFRVDVW — higher, 1.23 ± 0.57
- RIKRETHAAFNVYSIYAVRY — within error, 0.183 ± 0.3
- RIVQYIELRFTYQRKYNGAG — higher, 3.02 ± 0.057
- RIWMLY — within error, 0.42 ± 0.66
- RIWSFNGQTFVSNLSVSSVS — within error, -0.773 ± 0.76
- RIYFTPRYLDIDFYWTLNAV — within error, -0.598 ± 0.64
- RKCQIRVMKNSD — within error, -0.858 ± 1.1
- RKLLYCCEVATWCRGETSER — higher, 4.33 ± 0.089
- RKVRCRYSMT — within error, 0.142 ± 0.6
- RKVWLALVIFVCGCFIHYNG — within error, -0.338 ± 0.64
- RLALWVKSSYVFIQESEELH — higher, 3.2 ± 0.1
- RLCLYN — lower, -1.2 ± 0.38
- RLECRLNSEPFYKDWTSSDS — higher, 0.674 ± 0.39
- RLEVGGTN — higher, 2.86 ± 0.11
- RLFRAFNLCYAAIRVGASPQ — within error, 0.287 ± 0.26
- RLGEWECTHQVPFHSRWACG — within error, -0.087 ± 0.76
- RLGSSEACPICLDHFGFIMF — lower, -1.26 ± 0.54
- RLGYILNFELNYLII — higher, 0.856 ± 0.17
- RLIDCVVVRVFINNVMLPAY — higher, 5.45 ± 0.056
- RLLAIRIVILYSINCVLSLW — within error, 0.129 ± 0.42
- RLLLRALYNPEYSRTQC — lower, -1.43 ± 0.64
- RLMSCMFFNADITAPYWSRY — higher, 6.235 ± 0.036
- RLPASWLVAPGCRWPCLPRN — higher, 1.78 ± 0.22
- RLPTGSQNY — within error, -0.281 ± 0.38
- RLRAQSHCAVAAGRNMEPWA — higher, 5.986 ± 0.043
- RLRQEYGLLLRRGKSVP — within error, 0.252 ± 0.35
- RLSCFMNRGVREDSDSN — within error, -0.766 ± 0.61
- RLSSILYYVNHFS — within error, -0.045 ± 0.41
- RLVNASEGGMHWANSSEFYA — higher, 0.643 ± 0.24
- RLWYHVICVDYDGGEYRSSG — within error, 0.388 ± 0.36
- RLYTREQLRTLWLSYMFLRK — within error, -0.357 ± 0.29
- RMDKAGRSGV — higher, 0.656 ± 0.26
- RMGSYDVNRNSFFKCSGRVS — within error, -0.864 ± 0.78
- RMNEACTWTLIVYFYRSLL — higher, 1.5 ± 0.12
- RMQHKHASVKGPTCVIQCTD — higher, 1.62 ± 0.34
- RMSEYFDGLHRWFSGCWCAL — within error, 0.256 ± 0.65
- RMSIFPGH — within error, -1.04 ± 1.1
- RMSWVGSEHRLGVNSFNVLG — within error, 0.201 ± 0.34
- RNCACCEWL — higher, 4.58 ± 0.052
- RNCHYYILVTLCNVKNVYL — higher, 8.283 ± 0.054
- RNCRDNYYSWRFKHLNRDRD — within error, -0.076 ± 0.61
- RNFCGTRARSISYWAESERW — within error, -0.089 ± 1.1
- RNGCLTIEW — higher, 1.78 ± 0.12
- RNKCYLLCLR — within error, -0.384 ± 0.26
- RNKIMCNPYCQGRICRILSG — lower, -0.777 ± 0.53
- RNRSKQDQWRNELSAGLHGV — within error, -0.359 ± 0.45
- RNVCGCPGCYFNVDAILLWY — within error, -1.2 ± 1.1
- RPCFCFSMFYGRKW — within error, 0.553 ± 0.8
- RPDQTRF — within error, -0.022 ± 0.5
- RPFKYCVRRLANRA — within error, 0.135 ± 0.65
- RPKYIWDCWCTCFHFS — higher, 3.63 ± 0.088
- RPPPHCSCSSYSWDMYCILN — higher, 8.58 ± 0.072
- RQQMDS — higher, 3.62 ± 0.073
- RQSKARLYCR — within error, 0.397 ± 0.3
- RQVWLR — higher, 0.854 ± 0.32
- RRFKSDLL — higher, 1.57 ± 0.44
- RRGDKRMVTDFTLLTTGGGR — higher, 0.543 ± 0.33
- RRGSSTIGADKESQVSLQN — within error, -0.724 ± 1
- RRHEPVPSSK — within error, 0.398 ± 0.66
- RRVPEKGLLGLYSGGLIAEV — within error, -0.299 ± 0.74
- RRVVVTWMSNIPRLLSRGVN — within error, 0.171 ± 0.23
- RRYDAVR — higher, 1.3 ± 0.22

For QRHAVWGSSGDLTYELIGSL, the amyloid nucleation score was “inactive”.
For QVSYNLCNR, the amyloid nucleation score was “inactive”.
For RAFIINWALFGTRH, the amyloid nucleation score was “inactive”.
For RCNRSCN, the amyloid nucleation score was “inactive”.
In the case of RDLSLNFIHPLRFGY, the amyloid nucleation score is reported as “inactive”.
For RDYGQFCRSFGHLGLFLGSQ, the amyloid nucleation score was “inactive”.
For RELRQPNK, the amyloid nucleation score was “inactive”.
For RFFHGYFCGIRCRCQAVCQL, the amyloid nucleation score was “inactive”.
With RGRCPCEVFNGSYVFVTHGD the amyloid nucleation score was “inactive”.
In the case of RIMISSIELDNCWYILGLSA, the amyloid nucleation score is reported as “inactive”.
For RIRVIIVPALVLA, the amyloid nucleation score was “inactive”.
In the case of RKTLLLKTRACPSPLFWLDT, the amyloid nucleation score is reported as “inactive”.
With RMFWISNKVSIPGPGLEAGN the amyloid nucleation score was “inactive”.
With RNFPMVFCAMV the amyloid nucleation score was “inactive”.
For RQQIFYSRDVQVNVGGN, the amyloid nucleation score was “inactive”.
For RRKSGLEFLLISNYIILGFR, the amyloid nucleation score was “inactive”.
